Here are results for one substance from patent US20130245385A1.

This experiment deals with sHLA-A2 (soluble class I HLA-A2) (human). The experiment is described as follows: 65 ml class I HLA SHARC, 24.4 mg W6/32 at 97 µg/ml in PBS.

The substance “W6/32 pan class I HLA monoclonal antibody” yielded an antibody recovered in the elution of 8 mg and an antibody that passed through the column of 11.7 mg.
